Results from patent publication USRE47150 (Bayer, dated 2018).
Residue numbers refer to the chain shown, from its start. Names may count otherwise.

T1: mouse tissue factor pathway inhibitor (TFPI) (mouse, UniProt O54819 29-289, limits assumed)
T1 construct: bought; also called mTFPI; murine TFPI
T1 sequence (looked up): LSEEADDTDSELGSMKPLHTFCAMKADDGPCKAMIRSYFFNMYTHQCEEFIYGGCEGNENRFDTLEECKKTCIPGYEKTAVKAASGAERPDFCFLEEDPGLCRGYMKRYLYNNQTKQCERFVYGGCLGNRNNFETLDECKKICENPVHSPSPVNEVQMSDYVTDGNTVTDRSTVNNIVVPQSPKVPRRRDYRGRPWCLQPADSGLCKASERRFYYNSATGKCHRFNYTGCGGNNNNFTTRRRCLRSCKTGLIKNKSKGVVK

T2: human tissue factor pathway inhibitor (TFPI) (human, UniProt P10646 29-304, limits assumed)
T2 construct: bought; also called hTFPI; human TFPI
T2 sequence (looked up): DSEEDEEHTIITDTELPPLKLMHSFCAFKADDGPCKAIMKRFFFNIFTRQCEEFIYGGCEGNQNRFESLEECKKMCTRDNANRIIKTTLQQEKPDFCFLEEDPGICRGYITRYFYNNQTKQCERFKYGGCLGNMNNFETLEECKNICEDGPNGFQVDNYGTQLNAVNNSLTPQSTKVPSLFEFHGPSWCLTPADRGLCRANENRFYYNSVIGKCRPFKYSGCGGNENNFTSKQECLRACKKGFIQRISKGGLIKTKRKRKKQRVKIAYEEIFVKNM

B1: 4B7 HC D62Q+H107M+Y112D/LC D33F+N35I (Fab, V domains shown)
VH: QVQLQQSGPGLVKPSQTLSLTCAISGDSVSSNSAAWSWIRQSPGRGLEWLGIIYKRSKWYNQYAVSVKSRITINPDTSKNQFSLQLNSVTPEDTAVYYCARWHSDKMWGFDDWGQGTLVTVSS
VL: DIVMTQSPLSLPVTPGEPASISCRSSQSLVFSFGITYLNWYLQKPGQSPQLLIYKGSNRASGVPDRFSGSGSGTDFTLKISRVEAEDVGVYYCQQYDSYPLTFGQGTKVEIKR
B2: 4B7 HC N32D+D62Q+Y112D/LC F31M+S32R+D33F+N35I (Fab, V domains shown)
VH: B1 VH with N32D, M107H
VL: B1 VL with F31M, S32R
B3: 4B7 HC N32D+D62Q+H107M+Y112D/LC F31M+S32R+D33F+N35I+D97T (Fab, V domains shown)
VH: B1 VH with N32D
VL: B1 VL with F31M, S32R, D97T
B4: 4B7 HC N32D+D62R+H103D+H107M+Y112D/LC S32R+N35T (Fab, V domains shown)
VH: B1 VH with N32D, Q62R, H103D
VL: B1 VL with S32R, F33D, I35T
B5: 4B7 HC N32D+D62Q+Y112D/LC F31I+D33F+N35I+T36N (Fab, V domains shown)
VH: B1 VH with N32D, M107H
VL: B1 VL with F31I, T36N
B6: 4B7 HC N32D+D62Q+Y112D/LC V30L+F31I+D33F+N35I (Fab, V domains shown)
VH: B1 VH with N32D, M107H
VL: B1 VL with V30L, F31I
B7: 4B7 HC D62Q+Y112D/LC S32R+D33F+N35I (Fab, V domains shown)
VH: B1 VH with M107H
VL: B1 VL with S32R
B8: 4B7 HC N32D+D62R+H107M+Y112D/LC D33F+N35T+Y37F (Fab, V domains shown)
VH: B1 VH with N32D, Q62R
VL: B1 VL with I35T, Y37F
B9: 4B7 HC D62R+H107M+Y112D/LC D33F+N35I (Fab, V domains shown)
VH: B1 VH with Q62R
VL: B1 VL
B10: 4B7 HC N32D+D62Q+Y112D/LC F31I+D33F+N35I+D97T (Fab, V domains shown)
VH: B1 VH with N32D, M107H
VL: B1 VL with F31I, D97T
B11: 4B7 HC N32D+D62Q+H107M+Y112D/LC D33R+N35T (Fab, V domains shown)
VH: B1 VH with N32D
VL: B1 VL with F33R, I35T
B12: 4B7 HC D62R+H107M+Y112D/LC F31I+D33R+N35I (Fab, V domains shown)
VH: B1 VH with Q62R
VL: B1 VL with F31I, F33R
B13: 4B7 HC N32D+D62Q+H107M+Y112D/LC F31M+D33F+N35T+Y37F (Fab, V domains shown)
VH: B1 VH with N32D
VL: B1 VL with F31M, I35T, Y37F
B14: 4B7 HC N32D+D62Q+Y112D/LC S32R+D33F+N35I+D97T (Fab, V domains shown)
VH: B1 VH with N32D, M107H
VL: B1 VL with S32R, D97T
B15: 4B7 HC N32D+D62Q+H107M+Y112D/LC F31I+S32R+D33R+N35I+D97T (Fab, V domains shown)
VH: B1 VH with N32D
VL: B1 VL with F31I, S32R, F33R, D97T
B16: 4B7 HC D62R+H107M+Y112D/LC N35T+D97T (Fab, V domains shown)
VH: B1 VH with Q62R
VL: B1 VL with F33D, I35T, D97T
B17: 4B7 HC N32D+D62Q+H107M+Y112D/LC N35I (Fab, V domains shown)
VH: B1 VH with N32D
VL: B1 VL with F33D
B18: 4B7 HC D62R+H107M+Y112D/LC S32R+D33F+N35I (Fab, V domains shown)
VH: B1 VH with Q62R
VL: B1 VL with S32R
B19: 4B7 HC N32D+D62Q+H107M+Y112D/LC S32R+N35T (Fab, V domains shown)
VH: B1 VH with N32D
VL: B1 VL with S32R, F33D, I35T
B20: 4B7 HC D62S+H107M+Y112D/LC S32R+D33F+N35I (Fab, V domains shown)
VH: B1 VH with Q62S
VL: B1 VL with S32R
B21: 4B7 HC N32D+D62Q+Y112D/LC S32R+D33R+N35I+D97T (Fab, V domains shown)
VH: B1 VH with N32D, M107H
VL: B1 VL with S32R, F33R, D97T
B22: 4B7 HC N32D+D62R+H107M+Y112D/LC D33R (Fab, V domains shown)
VH: B1 VH with N32D, Q62R
VL: B1 VL with F33R, I35N
B23: 4B7 HC D62R+H107M+Y112D/LC F31M+D33F (Fab, V domains shown)
VH: B1 VH with Q62R
VL: B1 VL with F31M, I35N
B24: 4B7 HC D62R+Y112D/LC S32R+D33F+N35I (Fab, V domains shown)
VH: B1 VH with Q62R, M107H
VL: B1 VL with S32R
B25: 4B7 HC N32D+D62Q+Y112D/LC F31I+D33F+N35I+S98H (Fab, V domains shown)
VH: B1 VH with N32D, M107H
VL: B1 VL with F31I, S98H
B26: 4B7 HC N32D+D62K+Y112D/LC S32R+D33F+N35I+D97T (Fab, V domains shown)
VH: B1 VH with N32D, Q62K, M107H
VL: B1 VL with S32R, D97T
B27: 4B7 HC D62R+H107M+Y112D/LC F31I+S32R+D33F+N35I+D97T (Fab, V domains shown)
VH: B1 VH with Q62R
VL: B1 VL with F31I, S32R, D97T
B28: 4B7 HC N32D+D62Q+H107M+Y112D/LC S32R+D33R (Fab, V domains shown)
VH: B1 VH with N32D
VL: B1 VL with S32R, F33R, I35N
B29: 4B7 HC D62R+H107M+Y112D/LC F31M+D33F+N35I (Fab, V domains shown)
VH: B1 VH with Q62R
VL: B1 VL with F31M
B30: 4B7 HC N32D+D62Q+Y112D/LC F31I+D33F+N35I+L42Q (Fab, V domains shown)
VH: B1 VH with N32D, M107H
VL: B1 VL with F31I, L42Q
B31: 4B7 HC N32D+D62R+H103D+H107M+Y112D/LC S32R (Fab, V domains shown)
VH: B1 VH with N32D, Q62R, H103D
VL: B1 VL with S32R, F33D, I35N
B32: 4B7 HC N32D+D62R+H107M+Y112D/LC D33R+N35I+D97T (Fab, V domains shown)
VH: B1 VH with N32D, Q62R
VL: B1 VL with F33R, D97T
B33: 4B7 HC N32D+D62Q+H107M+Y112D/LC S32R+D33F (Fab, V domains shown)
VH: B1 VH with N32D
VL: B1 VL with S32R, I35N
B34: 4B7 HC N32D+D62Q+Y112D/LC F31I+D33F+N35I+K44R (Fab, V domains shown)
VH: B1 VH with N32D, M107H
VL: B1 VL with F31I, K44R
B35: 4B7 HC N32D+D62Q+H107M+Y112D/LC S32R+D33F+N35I (Fab, V domains shown)
VH: B1 VH with N32D
VL: B1 VL with S32R
B36: 4B7 HC N32D+D62R+H103D/LC F31I+D33R (Fab, V domains shown)
VH: B1 VH with N32D, Q62R, H103D, M107H, D112Y
VL: B1 VL with F31I, F33R, I35N
B37: 4B7 HC N32D+D62Q+Y112D/LC S32R+D33R+N35I (Fab, V domains shown)
VH: B1 VH with N32D, M107H
VL: B1 VL with S32R, F33R

Biological target: T1, mouse tissue factor pathway inhibitor …
Assay: competitive ELISA

Row | variant/HC_D62R [ratio] | binding result | Binder
1 | 31.7 |  | B1
2 | 15.8 |  | B2
3 | 12 |  | B3
4 | 18.4 |  | B4
5 | 46.3 |  | B5
6 | 24.6 |  | B6
7 | 38.1 |  | B7
8 | 57.5 |  | B8
9 | 36.6 |  | B9
10 | 4.6 |  | B10
11 | 18.8 |  | B11
12 | 35.4 |  | B12
13 | 35.3 |  | B13
14 | 40 |  | B14
15 | 11.5 |  | B15
16 | 19.4 |  | B16
17 | 16.4 |  | B17
18 | 50.3 |  | B18
19 | 27.1 |  | B19

Row | variant/HC_D62R [ratio] | binding result | Binder
20 | 31.7 |  | B20
21 | 13.4 |  | B21
22 | 20.3 |  | B22
23 | 31.3 |  | B23
24 | 39.9 |  | B24
25 |  | no binding | B25
26 | 38.8 |  | B26
27 | 18.2 |  | B27
28 | 24.7 |  | B28
29 | 47 |  | B29
30 | 16.7 |  | B30
31 | 16 |  | B31
32 | 28.1 |  | B32
33 | 16.9 |  | B33
34 | 18.5 |  | B34
35 | 46.6 |  | B35
36 | 14.6 |  | B36
37 | 23.5 |  | B37

Biological target: T2, human tissue factor pathway inhibitor …
Assay: competitive ELISA

Row | variant/HC_D62R [ratio] | Binder
38 | 22.7 | B1
39 | 20.8 | B2
40 | 19 | B3
41 | 14 | B4
42 | 27.3 | B5
43 | 22.9 | B6
44 | 23.6 | B7
45 | 35.7 | B8
46 | 20 | B9
47 | 14.4 | B10
48 | 23.7 | B11
49 | 22 | B12
50 | 19.4 | B13
51 | 23.2 | B14
52 | 20.2 | B15
53 | 20.1 | B16
54 | 22.2 | B17
55 | 24.1 | B18
56 | 25 | B19

Row | variant/HC_D62R [ratio] | Binder
57 | 18.2 | B20
58 | 17.2 | B21
59 | 25.3 | B22
60 | 24.2 | B23
61 | 21.9 | B24
62 | 13.5 | B25
63 | 22.7 | B26
64 | 20.4 | B27
65 | 24.9 | B28
66 | 30.9 | B29
67 | 21.4 | B30
68 | 17.7 | B31
69 | 29.1 | B32
70 | 23.2 | B33
71 | 22.8 | B34
72 | 24.7 | B35
73 | 13.6 | B36
74 | 21.4 | B37
